In the DeepSol protein solubility set:

Experiment: soluble on expression in E. coli; label from the status in PepcDB or PDB records

Row | Sequence | soluble on expression in E. coli
1 | SLQMQGITGSNITVLELVERYLSLKTGVKHNTLANYKFVVNVLKKEEFAYKKVDDVKLSDAKIFLIKLQRDGRGYSSIHSIRGVLRPAFQMAVDDDLILKNPFGFELGTVLVNDSQKRQAVSPEDETKFLDFVKNDPHYNQYYDAFYILFKTGLRISEFCGLTVKDLDFKEDIINVNHQLQRTREMKYIIVSTKTTSGTRLLPMEADVKEAFLRILKNRRKPKREPMVDGYGGFLFLDKNGRPMVALHWEKYMQHAREKYNRENLLQLPPVTPHICRHTYCTNMANSGMNPKTLQYLMGHSDVSVTLNIYTHTGYDDAKKELARLKEARDELEKKKFITQKHAQTTHVSLIS | not soluble
2 | MIERVKGTRDFLPEDMAKRRWVFEKIREVFEAYGFKEILTPVMEYTKLFQLRSGEEVVKQLYAFKDKGGRDVSLRPDMTSSVARLYVNSFQMAPKPIKWYYIANMFRYEEPQSGRYREFWQAGVELIGSDKVEADAEVIALFVESYLSTGLRDFTVNIGDRILLDEFAGMLGVSDDIGLMRIIDKRDKLSQEEFINLLKEFGLGESEIEKVLELVEIKGRPDNVLPLAEELFKSKKAKEEISKLYKLTDLLEWYGVKDWIRIDLGIARGFDYYTSIVFEAISPNELGIGSIGGGGRYDNLIEIFGGKPTPATGFAIGIERLLPILEWKGLIPKPQTGPEVFVIPLKDMEKVAINIAVKLRREKIKTDIELSGRKLGKALDYANRVGAKLVIIVGKRDVERGVVTIRDMESGEQYNVSLNEIVDKVKNLLKR | soluble
3 | PTRQVLQGSRCRLEPLTLAHASDLFAAHQLAPDARSWTWLLREPESNLAEFSAWVEQVATLADPIHFAVVDQQRGKAVGSLALMRIDIAHGVVEVGHVHFSPLLSRTAMATEAHWLLMQYVFDTLGYRRYEWKCNSLNIPSARAARRLGFQYEGRFRQALVSKGHNRDTDWFSVIDGEWPELDNAMRQWLAADNFTA | not soluble
4 | MGSDKIHHHHHHMWLKAKKDAEAGAVSFSNQNGKFAEVSSVNTEEFSFRIYQVFGGGHVELSYDTVTTAVSVIYWFTASDVLETGITVVHTKPDNAAPELPGSYHFRPPFGWMNDPNGFGRFEGRPHLFYQHYSHGLRWNTMHWGHAVSSDYLRWRHLPIFLFPSEDLTTRPDKRGGAYSGSTIPLVEGSGIRVFFTEQVQDRIPEQQIQLTATSSDLIMAGQADVILAHRPDGQGLTPDFRDPYVFRGPDGLWKMLLGSQSDGGGVILLYETLDPTAASGWTYVGKLWVETRYKTTAIECPCLLPLDGPANARSTRWVLIYGLMHSEDPETGRKNLTMADVGWFDGKVFTKEFGQELDFGTDNYAFQAFLDGDSIIGIGWLANWADANPEIDFPTSMTLPRRIHYANGELLTPPIGAAESLRSHILDRTRLAAGERVTFINGAVEILIELASSDAAFELALDHPTVTLGLVSDETGLWIRHEDGRDGASPHYIAKGARASRIRIFLDYGSIEVFANRGRYVGTKRIEGFEPVRSALLRADPGAVVHATSWALKP | not soluble
5 | MGSDKIHHHHHHMREIMSIITLPRKIYQQRDIIDNIRETLQLKEPILLVSDRNIMKLYGQRIKNALDGSDYRVIEDVRPEPEVSDIENTYRSLSGFQPKTIIAFGGGSVIDFAKSIDVKISYPDRSLEEVNPFEPLNLKADLVAIPTTSGTGSDVSFGIVITDQGRKLALGNFDLVPYVSVLDSSLVPSDPSIIRPTGVDALVHSFEALTANTSSIFTDALAEKAIETIFGILIDPMKGEEDARENMHLAATMAGISFTNSGTALAHALGHSFGSTHHVVHGTCVGLFLPYVIEFNSSDENASEKYARIARRLGYKDAISALRDLYRRIGQPLTVAEIGIPKDAYMKSLDSMVEKALADSELAFNPVIAGDEDVRSIYIKAYGD | not soluble
6 | MSLASLRVLALACLPLFAVLHADAKTLLGKVKRATGMGVGEGPSVAKKPKYTATVPGFTPPSGDQRMNEFMAVDTSGEFMRHLYIEEGRTVCASATSRNRRPTSESPHSDDVVVVEGMLRGRPETRVHAMFDGFQGRHSAMWLAQNVMNYLNDLRDVNEEEITRQFERMDGDLRAANLPGGSSALIIFVRYEKKPTEARVVGRQIVPEGAKEFTSVAEALGGPLMPVVAMNFRRDPRAAKGIYTIHVASLGNSRCVLKSGRTAIHLSTPHTASSHKERHRVQAAGGVFTTVNGELLLGGVVPMTRAFGSFDFKKGGQGKLQQDLVSAVPDVTTFFAYPGDDIVAGTAGAFAHFRSHAAIAAAIALYPVSPETVLDAAEGHHHHHH | soluble
7 | MPIIYYDGNCVYCYNYAIWLIQHGLSTRYQFAKLQGDVAQNLLENYPEAQQYDSVILQEGDQLKYKSDAITTLITSLTNYKWLGILLRFVPNIIRDFGYQLFADNRNHMWKTHWHEPNDYEKSFFIDLEHHHHHH | not soluble
8 | MGSDKIHHHHHHMSLLKVQNLTKEFPLGFFGKERLKAVDDVSFEIERSRIVSLIGESGSGKTTVGKLILKLIRPSSGQILLNGRDITQIKGRELREYYRKVQGVFQDPFSSFNPIYKIDRVLDMVFEEFFPDTPASERRTKMEEVIASVGMNPREILGKYPHQLSGGQLQRILIARTLLLNVELLIADEIISMLDASTRVDILNLLGDLRERGMSVIFITHDLSLGYYISDETFIMYRGNIVEMGDTEKVFHNPIHPYTKMLLESVPEIDRKWDLSKRFIPELVSSSNAPCKYYDRCPIRDERCLVQKPAMVEVEENHKVLCLKAGD | not soluble
9 | SLKIFTSKKGQLSQLKQQKFKLEKDIQRLFEENLTLLSGYIFIRSEFSIKNSRIDTLAFDPETQAFVIIEYKRQQNSSVVDQGISYLNLMLEYKADFIVEYNEKQKVPLKRNDVDWSQSKVIFVSPAFNDFQIQATNFKDLPIELWEVNRFDNDIITLNIINKSKSAPNIKAVSNEKREEFSILKEIKVYQESDHLADKTDFIQELYEDFKQGILNLDPDIEINTRKLYIAFKKDRNIADIRIQQKNLKIWINLPYGELDDPKNLAKNVSNTGHWGNGDYEITIESTQYLEYIMSLIKQAIKD | soluble
10 | MLPCLNEEESLPAVLAAIPAGYRALVVDNNSTDDTATVAARHGAQVVVEPRPGYGSAVHAGVLAATTPIVAVIDADGSMDAGDLPKLVAELDKGADLVTGRRRPVAGLHWPWVARVGTVVMSWRLRTRHRLPVHDIAPMRVARREALLDLGVVDRRSGYPLELLVRAAAAGWRVVELDVSYGPRTGGKSKVSGSLRGSIIAILDFWKVISLEHHHHHH | not soluble
11 | QLGKDHAIVERNEKIDDAFKSDPASYQSVYDAQGRIKDGQEWMRVSLKGRFDANNEVLLRMRPVEGTPAYQSLVPFTLESGESLLINRGFVPGDAANVPELAAVPTETVTIVAHARANEGMPASAPMSAHGYQQVYGINTTQISEITHTTLGTDFAQLSQDQPGVLNAMPIPQLDRGNHLSYGLQ | not soluble
12 | MDFDNFPIEQLSHLISFDIEWTETSVADAIKIKDIILRSPHFESASILSHCVNKIKPEVLKVFHPNYIATDRDYNEMLELRNDYFRSIVYAGGSSIDIYNVNLEDPDDFE | not soluble
13 | MNYDAKQPPANLADSIQQKETVQALYDLLDKNMADFDASLAGMDKAETADLKEVSDTREIYDFIRYHYGEFGQREAELLLRMENPLNFIVENWPCHNLETLAMNYLADKTIKEPNKKEMPQSGHDTKDAEKPSILKQIKTNQGQIKANRQETRQQSITAERPRDGEAR | not soluble
14 | GFKDYGHDYHPAPKTENIKGLGDLKPGIPKTPKQNGGGKRKRWTGDKGRKIYEWDSQHGELEGYRASDGQHLGSFDPKTGNQLKGPDPKRNIKKYL | soluble
15 | MGSDKIHHHHHHMTNDPIVFQMSVVKNKPQSYRKDKNKDICPFCDVENLTDIYAKDGDIIWLHNKFPTLRDTLQTVLIESSDHNGDISTYTKKYNRKLLRFSLQCFERMNRDDKYQSVVWYKNYGPHSGGSLIHPHMQIVGFKNVDGYKYIHPNNFEGETLFDKDGVEVNVAEHPVQGYTELNINLLNRNSVDLWADWIQSGAKYLLNIMYDGRCDSYNLFFYPRNDEGICAKFITRFDAPPYFVGYKLSQVNDEMTLTKEARRFKEFYDNDSKIK | not soluble
16 | MDRTRIVRRWRRNMDVADDAEYVEMLATLSEGSVRRNFNPYTDIDWESPEFAVTDNDPRWILPATDPLGRHPWYQAQSRERQIEIGMWRQANVAKVGLHFESILIRGLMNYTFWMPNGSPEYRYCLHESVEECNHTMMFQEMVNRVGADVPGLPRRLRWVSPLVPLVAGPLPVAFFIGVLAGEEPIDHTQKNVLREGKSLHPIMERVMSIHVAEEARHISFAHEYLRKRLPRLTRMQRFWISLYFPLTMRSLCNAIVVPPKAFWEEFDIPREVKKELFFGSPESRKWLCDMFADARMLAHDTGLMNPIARLVWRLCKIDGKPSRYRSEPQRQHLAAAPAA | not soluble
17 | MAIKDAIEKIVSYFDADEVTDHEDVAKERPVKVQKTEQTPSQQQRKPERPQETVPPRRQHIKSDVQETQVLRSLSLSRSQVNQGSQQMNTTKTTIAIKYPKKYEDAQEIVELLIENECVLIDFQYMLEAQARRCLDFIDGASKVLTGNLQKVGSSMYLLTPINVVVDIEEIGLSHGNQESTFDFDMKRRLEHHHHHH | not soluble
18 | MAHHHHHHMLRRTSFNFTGRAMISRGSPEWSHRLDLKKGKKTTMMHKLGTSKPNNALQYAQMTLHDLTEWCLAYSPWPLTFGLACCAVEMMHAYASRYDLDRFGIVPRPTPRQAEIIIVSGTVTNKMAPILRNIYVQMVNPKWVISMGSCANGGGYYHFSYAVLRGCERAIPVDFWIPGCPPSAESLVFCLHTLQKKIRWHEIQKYSVRD | not soluble
19 | MGSDKIHHHHHHMTEQATTTDELAFTRPYGEQEKQILTAEAVEFLTELVTHFTPQRNKLLAARIQQQQDIDNGTLPDFISETASIRDADWKIRGIPADLEDRRVEITGPVERKMVINALNANVKVFMADFEDSLAPDWNKVIDGQINLRDAVNGTISYTNEAGKIYQLKPNPAVLICRVRGLHLPEKHVTWRGEAIPGSLFDFALYFFHNYQALLAKGSGPYFYLPKTQSWQEAAWWSEVFSYAEDRFNLPRGTIKATLLIETLPAVFQMDEILHALRDHIVGLNCGRWDYIFSYIKTLKNYPDRVLPDRQAVTMDKPFLNAYSRLLIKTCHKRGAFAMGGMAAFIPSKDEEHNNQVLNKVKADKSLEANNGHDGTWIAHPGLADTAMAVFNDILGSRKNQLEVMREQDAPITADQLLAPCDGERTEEGMRANIRVAVQYIEAWISGNGCVPIYGLMEDAATAEISRTSIWQWIHHQKTLSNGKPVTKALFRQMLGEEMKVIASELGEERFSQGRFDDAARLMEQITTSDELIDFLTLPGYRLLA | not soluble
20 | LNNLEELKRDIIEQFKEKNALDEGIVVMASGGKDSSTAIALAKDLGLNIEYLIHFYHRWSWDVSKKMVEKLSKKFDIPVIFYNITDELLKRTKGAKGSSICRICKNIMKDKAVDISKEKGIRIIMTGDSALEKVSGAVMNYLRDVYGEVVYNKMELTPVPQKYSKGKDKEVLFFRPLIRLACEDVLKLMDYYNIEIERAHE | not soluble
21 | MGSSHHHHHHSSGLVPRGSHMSELLATYLLTEPGADTEKKAEQIATGLTVGSWTDLPLVKQEQMQKHKGRVIKVEEREGTAASEKQAVITIAYPEINFSQDIPALLTTVFGKLSLDGKIKLIDLHFSEAFKRALPGPKFGVYGIRKLLGEFERPLLMSIFKGVIGRDLSDIKEQLRQQALGGVDLIKDDEIFFETGLAPFETRIAEGKQILKETYEQTGHKTLYAVNLTGRTADLKDKARRAAELGADALLFNVFAYGLDVMQGLAEDPEIPVPIMAHPAVSGAFTSSPFYGFSHALLLGKLNRYCGADFSLFPSPYGSVALPRADALAIHEECVREDAFNQTFAVPSAGIHPGMVPLLMRDFGIDHIINAGGGVHGHPNGAQGGGRAFRAIIDAVLEAQPIDEKAEQCKDLKLALDKWGKAEAV | soluble
